Data: patent US20170015742A1 (published 2017)
Numbering of substitutions follows the chain as printed. Several values for one entry are separate records, joined by “and”; a condition that tells them apart may be missing. Equal values may be shown once.

Assays:
[1] = target: T1, human VEGF111 (human, UniProt P15692-10 27-137); assay: cell-based or functional assay
T1 sequence (looked up): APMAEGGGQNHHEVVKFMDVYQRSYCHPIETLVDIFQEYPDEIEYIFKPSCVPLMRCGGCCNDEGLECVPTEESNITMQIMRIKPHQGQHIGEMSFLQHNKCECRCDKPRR

[2] = target: T2, Human VEGF-A 165 (human, UniProt P15692 207-395); assay: cell-based or functional assay
[3] = target: T2, Human VEGF-A 165; assay: receptor competition ELISA: antibody titrated against biotinylated hVEGF165, binding to coated hVEGF-R2-Fc read
Procedure: To identify molecules that could block the binding of hVEGF₁₆₅ to the hVEGF-R2 (KDR/Flk-1) receptor, a competition ELISA was performed. […] Plates were then washed four times with wash buffer (TBS, 0.05% Tween-20) and blocked with Superblock blocking buffer (Thermo Scientific, cat#37535). […] The pre-incubated sample/hVEGF₁₆₅ complex was added to the coated plate at 50 μL in duplicate and incubated for 30 minutes at 25° C. with shaking. Following incubation, plates were washed four times with wash buffer. Streptavidin-polyHRP-40 (Fitzgerald cal#65r-s104phrp) was diluted in assay diluent (10% Superblock containing 0.05% surfactamps) and added to plates (50 μL) for 45 minutes at 25° C. with shaking. Plates were washed four times with wash buffer and developed with the addition of Enhanced K-blue TMB substrate (Neogen cat#308177). The reaction was stopped with 2N sulfuric acid (VWR, cat# BDH3500-1) and the absorbance was read at 450 nm-570 nm. A decrease in observed optical density indicates the test molecule is blocking the hVEGF₁₆₅ binding to the hVEGF-R2-Fc. Data was analyzed using Softmax Pro 4.8 software and IC₅₀ values calculated using a sigmoidal dose response (variable slope) fit in GraphPad Prism 5.

[4] = target: T2, Human VEGF-A 165; assay: SPR (Biacore), antibody captured by anti-human Fc, hVEGF165 as analyte
Procedure: (§1) For example, approximately 9000 RU of goat anti-human Fc specific polyclonal antibody (Thermo Fisher Scientific Inc., Rockford, Ill.) diluted in 10 mM sodium acetate (pH 4.5) is directly immobilized across a CM5 research grade biosensor chip using a standard amine coupling kit according to manufacturer's instructions and procedures at 25 μg/ml. Unreacted moieties on the biosensor surface were blocked with ethanolamine. For kinetic analysis, rate equations derived from the 1:1 Langmuir binding model were fitted simultaneously to multiple antigen injections (using global fit analysis) with the use of Scrubber 2 (BioLogic Software), Biacore Biaevaluation 4.0.1 software or Biacore T100 Evaluation software. Purified antibodies or DVD-Ig molecules were diluted in running buffer for capture across goat anti-human Fc reaction surfaces. Antibodies or DVD-Ig molecules to be captured as a ligand (1 μg/ml) were injected over reaction matrices at a flow rate of 10 μl/minute. During the assay, all measurements were referenced against the capture surface alone (i.e., with no captured antibody or DVD-Ig molecule). […] The equilibrium dissociation constant KD (M) of the reaction between antibodies and the target antigen was then calculated from the kinetic rate constants by the following formula: KD=Koff/Kₒₙ. Binding was recorded as a function of time and kinetic rate constants were calculated.

[5] = target: T3, recombinant human PDGF-BB (human, UniProt P01127 82-190, biotin-labelled in the binding and competition ELISAs (sites not given)); assay: Biacore SPR, antibody captured, PDGF-BB injected
T3 construct: Bought protein (CST cat#8912BF) in the ELISAs and cell assays; purified recombinant PDGF-BB in Biacore; also called huPDGF-BB; hPDGF-BB
Procedure: as §1

[6] = target: T4, recombinant human PDGF-BB (human, UniProt P01127 82-190); assay: cell-based or functional assay
T4 sequence (P01127 82-190 limits assumed): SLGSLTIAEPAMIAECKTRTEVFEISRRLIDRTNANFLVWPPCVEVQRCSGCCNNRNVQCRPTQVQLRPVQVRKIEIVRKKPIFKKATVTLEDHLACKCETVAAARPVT

[7] = target: recombinant rat PDGF-BB (rat, UniProt Q05028 74-182); assay: cell-based or functional assay
recombinant rat PDGF-BB, sequence (Q05028 74-182 limits assumed): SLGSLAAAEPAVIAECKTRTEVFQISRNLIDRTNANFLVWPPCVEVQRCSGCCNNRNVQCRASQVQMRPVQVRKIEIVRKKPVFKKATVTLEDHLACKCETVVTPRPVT

[8] = target: T4, recombinant human PDGF-BB; assay: competition ELISA: blocks biotin-hPDGF-BB binding to coated hPDGF-Rβ-Fc
Procedure: Plates were then washed four times with wash buffer (TBS, 0.05% Tween-20) and blocked with Superblock blocking buffer (Thermo Scientific, cat#37535). During the blocking step, supernatants, antibodies, benchmark compounds or DVD-Ig were diluted in assay diluent (10% Superblock containing 0.05% surfactamps) and an eight point titration of each sample molecule was performed. […] Following incubation, plates were washed four times with wash buffer. Detection reagent Streptavidin-polyHRP-40 (Fitzgerald, cat#65r-s104phrp) was diluted in assay diluent and added to plates (50 μL) for 45 minutes at 25° C. with shaking. Plates were washed four times with wash buffer and developed with the addition of Enhanced K-blue TMB substrate (Neogen, cat#308177). The reaction was stopped with 2N sulfuric acid (VWR, cat# BDH3500-1) and the absorbance was read at 450 nm-570 nm. […] Data was analyzed using Softmax Pro 4.8 software and IC₅₀ values calculated using a sigmoidal dose response (variable slope) fit in GraphPad Prism 5.

[9] = target: T5, human PDGF-B (PR-1373790) (human, UniProt P01127 82-190); assay: SPR (Biacore), mAb captured by anti-human Fc, antigen injected
T5 construct: Soluble recombinant PDGF-BB homodimer; also called human PDGF-BB; hPDGF-BB
Procedure: as §1, with “Unreacted” for “For example, approximately 9000 RU of goat anti-human Fc specific polyclonal antibody (Thermo Fisher Scientific Inc., Rockford, Ill.) diluted in 10 mM sodium acetate (pH 4.5) is directly immobilized across a CM5 research grade biosensor chip using a standard amine coupling kit according to manufacturer's instructions and procedures at 25 μg/ml. Unreacted”, “calculated. In this assay, on-rates as fast as 10⁶M⁻¹s⁻¹ and off-rates as slow as 10⁻⁶ s⁻¹ could be measured.” for “calculated.”

[10] = target: T6, mouse PDGF-B (PR-1577160) (mouse, UniProt P31240 82-190); assay: as above
T6 construct: Recombinant; also called mouse PDGF-BB; mPDGF-BB
T6 sequence (P31240 82-190 limits assumed): as the sequence (Q05028 74-182 limits assumed) above, with V83I, V102I counted along it
Procedure: as §1, with “Unreacted” for “For example, approximately 9000 RU of goat anti-human Fc specific polyclonal antibody (Thermo Fisher Scientific Inc., Rockford, Ill.) diluted in 10 mM sodium acetate (pH 4.5) is directly immobilized across a CM5 research grade biosensor chip using a standard amine coupling kit according to manufacturer's instructions and procedures at 25 μg/ml. Unreacted”, “calculated. In this assay, on-rates as fast as 10⁶M⁻¹s⁻¹ and off-rates as slow as 10⁻⁶ s⁻¹ could be measured.” for “calculated.”

[11] = target: T7, cyno PDGF-B (PR-1575400) (cynomolgus monkey, UniProt P01127 82-190 (human entry), limits assumed); assay: as above
T7 construct: Recombinant; also called cynomolgus monkey PDGF-BB; cynoPDGF-BB
T7 chain: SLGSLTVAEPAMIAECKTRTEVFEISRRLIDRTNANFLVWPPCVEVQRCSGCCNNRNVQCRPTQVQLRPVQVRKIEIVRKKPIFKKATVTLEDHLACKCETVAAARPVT
Procedure: as §1, with “Unreacted” for “For example, approximately 9000 RU of goat anti-human Fc specific polyclonal antibody (Thermo Fisher Scientific Inc., Rockford, Ill.) diluted in 10 mM sodium acetate (pH 4.5) is directly immobilized across a CM5 research grade biosensor chip using a standard amine coupling kit according to manufacturer's instructions and procedures at 25 μg/ml. Unreacted”, “calculated. In this assay, on-rates as fast as 10⁶M⁻¹s⁻¹ and off-rates as slow as 10⁻⁶ s⁻¹ could be measured.” for “calculated.”

[12] = target: T8, rat PDGF-B (PR-1645048) (rat, UniProt Q05028 74-182); assay: SPR (Biacore), antibody captured by anti-human Fc, antigen injected
T8 construct: Lot 2235300; also called rat PDGF-BB; ratPDGF-BB
T8 sequence (Q05028 74-182 limits assumed): as the sequence (Q05028 74-182 limits assumed) above
Procedure: as §1, with “Unreacted” for “For example, approximately 9000 RU of goat anti-human Fc specific polyclonal antibody (Thermo Fisher Scientific Inc., Rockford, Ill.) diluted in 10 mM sodium acetate (pH 4.5) is directly immobilized across a CM5 research grade biosensor chip using a standard amine coupling kit according to manufacturer's instructions and procedures at 25 μg/ml. Unreacted”, “calculated. In this assay, on-rates as fast as 10⁶M⁻¹s⁻¹ and off-rates as slow as 10⁻⁶ s⁻¹ could be measured.” for “calculated.”

B1: chBEW-6C2 (antibody, human IgG1, kappa, L234A L235A, V domains shown)
VH: EVQLVESGGGLVQPGSSLKLSCAASGFTFSYYGMHWIRQAPKKGLEWMALIYYDSSKMYYADSVKGRFTISRDNSKNTLYLEMNSLRSEDTAMYYCAAGGTAPVYWGQGVMVTVSS
VL: NIQLTQSPSLLSASVGDRVTLSCKGSQNIANYLAWYQQKLGEAPKLLIYNTDSLQTGIPSRFSGSGSGTDYTLTISSLQPEDVATYFCYQSNNGYTFGAGTKLELRR
- Phospho-Tyr1054/huVEGF-A111 Neuterlization [1]: 0.435 nM
- huVEGF-A165 Neutralization Potency in HMVEC-d cells [2]: 31 pM
- IC50 [3]: 148 pM
- Kd [4]: 8.8 pM
- kon [4]: 4.9e+06 M⁻¹ s⁻¹

B2: chBEW-9A8 (antibody, human IgG1, kappa, L234A L235A, V domains shown)
VH: QIQLVQSGPELKKPGESVKISCKASGYTFTNYGMYWVKQAPGQGLQYMGWINTETGKPIYADDFKGRFVFFLETSASTAYLQINNLKNEDMATFFCARVDYDGSFWFAYWGQGTLVTVSS
VL: DTVLTQSPALAVSPGERVSISCRASESVSTVIHWYQQKPGQQPKLLIHGASNLESGVPARFSGSGSGTDFTLTIDPVEADDTATYFCQQHWNDPPTFGAGTKLEMKR
- Phospho-Tyr1054/huVEGF-A111 Neuterlization [1]: 0.26 nM
- huVEGF-A165 Neutralization Potency in HMVEC-d cells [2]: 26 pM
- IC50 [3]: 97 pM
- Kd [4]: ≤ 0.11 pM
- kon [4]: 8.9e+06 M⁻¹ s⁻¹

B3: chBDB-4G8 (antibody, human IgG1, kappa, L234A L235A)
heavy: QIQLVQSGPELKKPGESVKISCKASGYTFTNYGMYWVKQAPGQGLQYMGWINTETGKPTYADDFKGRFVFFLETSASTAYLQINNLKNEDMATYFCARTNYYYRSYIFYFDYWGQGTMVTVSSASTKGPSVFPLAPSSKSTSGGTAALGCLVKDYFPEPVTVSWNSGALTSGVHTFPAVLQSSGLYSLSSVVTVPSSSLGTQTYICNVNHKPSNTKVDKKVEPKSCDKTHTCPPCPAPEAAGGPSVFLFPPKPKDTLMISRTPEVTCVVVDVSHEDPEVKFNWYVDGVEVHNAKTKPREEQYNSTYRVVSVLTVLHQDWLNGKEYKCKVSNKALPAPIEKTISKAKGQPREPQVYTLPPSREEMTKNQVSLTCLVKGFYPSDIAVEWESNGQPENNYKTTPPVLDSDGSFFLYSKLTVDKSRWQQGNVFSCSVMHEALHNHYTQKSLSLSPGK
light: DTVLTQSPALAVSPGERVSISCRASESVSTHMHWYQQKPGQQPKLLIYGASNLESGVPARFSGSGSGTDFTLTIDPVEADDTATYFCQQSWNDPFTFGAVTKLELKRTVAAPSVFIFPPSDEQLKSGTASVVCLLNNFYPREAKVQWKVDNALQSGNSQESVTEQDSKDSTYSLSSTLTLSKADYEKHKVYACEVTHQGLSSPVTKSFNRGEC
- Phospho-Tyr1054/huVEGF-A111 Neuterlization [1]: 0.575 nM
- huVEGF-A165 Neutralization Potency in HMVEC-d cells [2]: 195 pM
- IC50 [3]: 157 pM
- Kd [4]: 1.9 pM and 3.8 pM
- kon [4]: 1.7e+07 M⁻¹ s⁻¹ and 1.2e+07 M⁻¹ s⁻¹

B4: BFU-11A8-D6-C3 (antibody, V domains shown)
VH: EVQLQQSGPELQRPGASVKLSCKASGYTFTESYIYWVKQRPEQSLELIGRIDPEDGSTDYVEKFKNKATLTADTSSNTAYMQLSSLTSEDTATYFCARFGARSYFYPMDAWGQGTSVTVSS
VL: DTVLTQSPTLAVSPGERVSIPCRASESVSTLMHWYQQKPGQQPRLLIYGASNLESGVPARFSGSGSGTDFTLTIDPVEADDTATYFCQQSWNDPWTFGGGTKLELK
- Kd [5]: ≤ 0.047 pM
- koff [5]: ≤ 1e-06 s⁻¹
- kon [5]: 2.1e+07 M⁻¹ s⁻¹

B5: BDI-9E8-E7 (antibody, IgG2b, V domains shown)
VH: QVTLKESGPGILQPSQTLSLTCTFSGFSLSTYGMGVGWIRQPSGKGLEWLANIWWDDDKYYNPSLKNRLTISKDTSNNQAFLKITNVDTADTATYYCARIESIGTTYSFDYWGQGVMVTVSS
VL: QFTLTQPKSVSGSLRSTITIPCERSSGDIGDSYVSWYQQHLGRPPINVIYADDQRPSEVSDRFSGSIDSSSNSASLTITNLQMDDEADYFCQSYDINIDIVFGGGTKLTVL
notes: Rat hybridoma monoclonal antibody
- Phospho-Tyr751/hPDGF-BB Neutralization [6]: 0.629 nM
- huPDGF-BB Neutralization Potency (nM) in NIH-3T3 Cells [6]: 0.195 nM
- Phospho-Tyr751/ratPDGF-BB Neutralization [7]: 0.333 nM
- IC50 [8]: 1120 pM

B6: BDI-5H1-F6 (antibody, IgG2b, V domains shown)
VH: QVTLKESGPGILQPSQTLSLTCTFSGFSLSTFGMGVGWIRQPSGKGLEWLANIWWDDDKYYNPSLKNRLTISKDTSNSQAFLEITNVDTADTATYYCARISTGISSYYVMDAWGQGASVTVSS
VL: B5 VL with S32T, A51G, D52N, I96S, N97D
notes: as for B5
- Phospho-Tyr751/hPDGF-BB Neutralization [6]: 0.884 nM
- huPDGF-BB Neutralization Potency (nM) in NIH-3T3 Cells [6]: 0.371 nM
- Phospho-Tyr751/ratPDGF-BB Neutralization [7]: 0.319 nM
- IC50 [8]: 528 pM

B7: BDI-7H10-D8 (antibody, IgG2b, V domains shown)
VH: EVKLQQSGDELVRPGASVKMSCKASGYTFTDYAMHWVKQSPGQGLEWIGTIIPLIDTTSYNQKFKGKATLTADTSSNTAYMELSRLTSEDSAVYYCARDWDNNWGYFDYWGQGVMVTVSS
VL: DVVLTQTPVSLSVTLGDQASISCRSSQSLEYSDGYTYLEWYLQKPGQSPQLLIYGVSNRFSGVPDRFIGSGSGTDFTLKISRVEPEDLGVYYCFQATHDPLTFGSGTKLEIK
- Phospho-Tyr751/ratPDGF-BB Neutralization [7]: > 5 nM

B8: CL-33675, PR-1593725 (antibody, V domains shown)
VH: EVTLRESGPALVKPTQTLTLTCTFSGFSLSTYGMGVGWIRQPPGKALEWLANIWWDDDKYYNPSLKNRLTISKDTSKNQVVLTMTNMDPVDTATYYCARIESSGPKYSFDYWGQGTMVTVSS
VL: EIVLTQSPGTLSLSPGERATLSCRASSGSIWYSFVSWYQQKPGQAPRLLIYADDQRASGIPDRFSGSGSGTDFTLTISRLEPEDFAVYYCQSYGINIDVVFGGGTKVEIK
notes: also called CL-33675-IgG
- Kd [9]: ≤ 0.58 pM
- koff [9]: 5.8e-06 s⁻¹
- kon [9]: ≥ 1e+07 M⁻¹ s⁻¹
- Kd [10]: ≤ 0.58 pM
- koff [10]: 5.8e-06 s⁻¹
- kon [10]: ≥ 1e+07 M⁻¹ s⁻¹
- Kd [11]: ≤ 1.3 pM
- koff [11]: 1.3e-05 s⁻¹
- kon [11]: ≥ 1e+07 M⁻¹ s⁻¹

B9: CL-33675 (antibody, V domains shown)
VH: B8 VH
VL: B8 VL
notes: Converted to IgG; also called CL-33675-IgG; PR-1593725
- Kd [12]: ≤ 0.58 pM
- koff [12]: 5.8e-06 s⁻¹
- kon [12]: ≥ 1e+07 M⁻¹ s⁻¹
